Patent US20120213763A1 (COUNCIL OF SCIENTIFIC AND INDUSTRIAL RESEARCH, published 2012)
Like-named read-outs stand apart in the source and are kept apart here.

Key:
Experiment in all cases: cell-based or functional assay
[1] = biological target: human plasminogen (HPG) (human) (UniProt P00747)
human plasminogen (HPG) [2] = biological target: T1, human plasminogen (HPG) (human, UniProt P00747 97-810)
human plasminogen (HPG) [3] = biological target: T1, human plasminogen (HPG); remark: listed apart in the source

T1 sequence (P00747 97-810): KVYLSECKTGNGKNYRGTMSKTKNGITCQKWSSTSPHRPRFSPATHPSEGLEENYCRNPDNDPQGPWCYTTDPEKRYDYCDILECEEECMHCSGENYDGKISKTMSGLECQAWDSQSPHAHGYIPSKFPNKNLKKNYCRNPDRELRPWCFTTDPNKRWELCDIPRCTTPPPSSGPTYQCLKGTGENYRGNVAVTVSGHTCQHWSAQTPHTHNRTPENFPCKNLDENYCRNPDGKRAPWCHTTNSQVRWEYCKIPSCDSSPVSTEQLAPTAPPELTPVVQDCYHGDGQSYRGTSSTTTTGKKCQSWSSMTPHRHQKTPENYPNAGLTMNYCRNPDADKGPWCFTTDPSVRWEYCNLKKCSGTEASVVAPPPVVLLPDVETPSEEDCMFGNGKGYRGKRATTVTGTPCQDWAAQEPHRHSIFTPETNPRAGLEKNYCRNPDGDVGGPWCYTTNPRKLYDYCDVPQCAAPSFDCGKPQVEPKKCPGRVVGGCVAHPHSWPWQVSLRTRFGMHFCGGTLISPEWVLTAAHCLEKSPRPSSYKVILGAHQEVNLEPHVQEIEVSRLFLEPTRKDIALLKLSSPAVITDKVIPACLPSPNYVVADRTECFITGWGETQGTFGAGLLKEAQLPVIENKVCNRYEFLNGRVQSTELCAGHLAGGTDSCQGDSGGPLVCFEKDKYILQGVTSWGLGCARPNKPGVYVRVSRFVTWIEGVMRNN
Sequence of human plasminogen (HPG) (human) (P00747 97-810): as above

Molecule: PEGylated SK C-383 Cys (SEQ ID NO 492), Cys at C + 1 position of SK 1-383, G3 (from UniProt P00779 27-409)
- % Plasminogen activation [1]: 92%

B1: bi-pegylated NC 1-383 (SEQ ID NO 493), Cys at N - 1 and at C + 1 position in SK (1-383, G3) (other)
chain: CIAGPEWLLDRPSVNNSQLVVSVAGTVEGTNQDISLKFFEIDLTSRPAHGGKTEQGLSPKSKPFATDSGAMSHKLEKADLLKAIQEQLIANVHSNDDYFEVIDFASDATITDRNGKVYFADKDGSVTLPTQPVQEFLLSGHVRVRPYKEKPIQNQAKSVDVEYTVQFTPLNPDDDFRPGLKDTKLLKTLAIGDTITSQELLAQAQSILNKNHPGYTIYERDSSIVTHDNDIFRTILPMDQEFTYRVKNREQAYRINKKSGLNEEINNTDLISEKYYVLKKGEKPYDPFDRSHLKLFTIKYVDVDTNELLKSEQLLTASERNLDFRDLYDPRDKAKLLYNNLDAFGIMDYTLTGKVEDNHDDTNRIITVYMGKRPEGENASYHLAGGGC
modifications: PEG on the Cys at N - 1 and on the C-terminal Cys placed after three glycine residues
- % Plasminogen Activation* (pre-complexed with equimolar plasmin) (human plasminogen (HPG) [2]): 92%
- % Plasminogen activation (human plasminogen (HPG) [2]): < 5%
- Lag (human plasminogen (HPG) [2]): 12 min

B2: native streptokinase nSK (1-414) ATCC 12449 (SEQ ID NO 1) (other)
chain: IAGPEWLLDRPSVNNSQLVVSVAGTVEGTNQDISLKFFEIDLTSRPAHGGKTEQGLSPKSKPFATDSGAMSHKLEKADLLKAIQEQLIANVHSNDDYFEVIDFASDATITDRNGKVYFADKDGSVTLPTQPVQEFLLSGHVRVRPYKEKPIQNQAKSVDVEYTVQFTPLNPDDDFRPGLKDTKLLKTLAIGDTITSQELLAQAQSILNKNHPGYTIYERDSSIVTHDNDIFRTILPMDQEFTYRVKNREQAYRINKKSGLNEEINNTDLISEKYYVLKKGEKPYDPFDRSHLKLFTIKYVDVDTNELLKSEQLLTASERNLDFRDLYDPRDKAKLLYNNLDAFGIMDYTLTGKVEDNHDDTNRIITVYMGKRPEGENASYHLAYDKDRYTEEEREVYSYLRYTGTPIPDNPNDK
- % Plasminogen Activation* (pre-complexed with equimolar plasmin) (human plasminogen (HPG) [2]): 100%
- % Plasminogen activation (human plasminogen (HPG) [2]): 100%
- Lag (human plasminogen (HPG) [2]): 1 min
- % Plasminogen activation (human plasminogen (HPG) [3]): 100%

B3: bi-pegylated NC 1-414 (SEQ ID NO 491), Cys at N - 1 and at C + 1 position in SK (other)
chain: CIAGPEWLLDRPSVNNSQLVVSVAGTVEGTNQDISLKFFEIDLTSRPAHGGKTEQGLSPKSKPFATDSGAMSHKLEKADLLKAIQEQLIANVHSNDDYFEVIDFASDATITDRNGKVYFADKDGSVTLPTQPVQEFLLSGHVRVRPYKEKPIQNQAKSVDVEYTVQFTPLNPDDDFRPGLKDTKLLKTLAIGDTITSQELLAQAQSILNKNHPGYTIYERDSSIVTHDNDIFRTILPMDQEFTYRVKNREQAYRINKKSGLNEEINNTDLISEKYYVLKKGEKPYDPFDRSHLKLFTIKYVDVDTNELLKSEQLLTASERNLDFRDLYDPRDKAKLLYNNLDAFGIMDYTLTGKVEDNHDDTNRIITVYMGKRPEGENASYHLAYDKDRYTEEEREVYSYLRYTGTPIPDNPNDKC
modifications: PEG (methoxy-PEG maleimide, 20 KDa) on the Cys at N - 1 and on the Cys at C + 1
- % Plasminogen Activation* (pre-complexed with equimolar plasmin) (human plasminogen (HPG) [2]): 88%
- % Plasminogen activation (human plasminogen (HPG) [2]): < 5%
- Lag (human plasminogen (HPG) [2]): 14 min
